{"source": "paper PMC8948829", "about": "“The Escherichia coli Amino Acid Uptake Protein CycA: Regulation of Its Synthesis and Practical Application in L-Isoleucine Production” (Microorganisms, 2022)", "molecular_target": "T1, Crp (CRP, cAMP receptor protein) (Escherichia coli (purified from strain SA500/pHA5)) (UniProt P0ACJ8)", "T1 sequence": "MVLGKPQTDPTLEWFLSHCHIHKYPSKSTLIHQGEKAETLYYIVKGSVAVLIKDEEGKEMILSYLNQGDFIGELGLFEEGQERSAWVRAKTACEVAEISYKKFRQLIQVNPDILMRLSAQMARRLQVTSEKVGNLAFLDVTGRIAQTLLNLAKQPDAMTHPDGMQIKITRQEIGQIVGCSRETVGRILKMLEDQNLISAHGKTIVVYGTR", "assay": "EMSA", "settings": "10 mM Tris-HCl pH 7.5, 1 mM EDTA, 100 mM KCl, 1 mM DTT, BSA (printed 10 g/mL), 5% glycerol, 20 uM cAMP, room temperature 30 min; 6% native PAGE, 1x TAE, 4 C", "data": [{"sequence": "CGTTCAGCACCCTGGTGTTTGAAGTCGAACTGCTGGAAATCCTCTAAGCAGCGCATTCTGTTCCCCTCGAACGAGAGGGGAGCAGGCATTCAGCAATAAACCCTTCAGTTTGCCAAACGGCGCTATTTTGTGTTGCAAAGACCCCGTA (double strand) [PcycA fragment 3 (148 bp, no predicted Crp site)]", "values": [{"measurement": "binding", "result": "no binding"}]}, {"sequence": "TGTTTAAAGTGAGTGTCATATCACGGTGATAACGCGAAACAGCTCACAAAAATACACGCTTACGGGGTCTTTGCAACACAAAATAGCGCCGTTTGGCAAACTGAAGGGTTTATTGCTGAATGCCTGCTCCCCTCTCGTTCGAGGGGAACAGAATGCGCTGCTTAGAGGATTTCCAGCAGTTCGACTTCAAACACCAGGGTGCTGAACG (double strand) [PcycA fragment 1 (208 bp)]", "values": [{"measurement": "binding", "result": "binds"}]}]}
